Reference: patent US20220000998A1

Columns and labels:
[1] = molecular target: MTTE peptide (minimal tetanus toxin epitope), biotinylated (Clostridium tetani)
[2] = molecular target: SM083P004 (Clostridium tetani)

B1: IBIIICI-b scFv (scFv)
scFv: EVRLLQSGAALVRPGASVKLSCTASGFNIKDFNIHWVKQRPEQGLEWIGRIDPENGDAEYVPKFQVRATMTTDTSSNTVYLHLSSLTSGDTAVYYCTTGSYDLDVEYWGQGTTLTVSSGGGGSGGGGSGGGGSGGGGSELQMTQSPSSLSASLGDTVTITCHASQNINVWLSWYQQRPGNIPKLLIYKASTLHTGVPSRFRGSGSGTGFTLTISSLQPEDIATYYCQQGQSYPLTFGAGTKLELK
B1 gave a Kd [1] of 0.52 nM, a koff [1] of 0.00048 s⁻¹ and a kon [1] of 920000 M⁻¹ s⁻¹.

B2: 14GIIICII-b scFv (scFv)
scFv: QVQLQQPGAELVMPGASVNLSCKASGYTFTDYWMHWVKQRPGQGLEWIGEIDPSDNFSNLNQNFRGKATLTVDKSSRTAFLQLSSLTSEDSAVYYCAVEDYWGQGTTLTVSSGGGGSGGGGSGGGGSGGGGSDIVMTQATPSVLVTPGEAVSISCRASRSLLHSNGITYLYWFLQRPGQSPQVLIYRMSNLVSGVPDRFSGSGSGTAFTLRISRVEAEDVGVYYCMQHLEFPYTFGGGTKLEIK
B2 gave a Kd [1] of 1.8 nM, a koff [1] of 0.00032 s⁻¹ and a kon [1] of 180000 M⁻¹ s⁻¹.

B3: scFv Y-SM083-p04-D04 (scFv)
scFv: EVQLLESGGGLVQPGGSLRLSCAASGFTFSGYYMYWVRQAPGKGLEWVSYIGYSGGGTGYADSVKGRFTISRDNSKNTLYLQMNSLRAEDTAVYYCARVPFGAFDYWGQGTLVTVSSGGGGSGGGGSGGGGSDIQMTQSPSSLSASVGDRVTITCRASQSISSYLNWYQQKPGKAPKLLIYAASSLQSGVPSRFSGSGSGTDFTLTISSLQPEDFATYYCQQYYGFPYTFGQGTKLEIK
B3 showed a Kd [2] of 3.3 nM, a koff [2] of 0.00043 s⁻¹ and a kon [2] of 130000 M⁻¹ s⁻¹.
